Test results published in patent publication US20240279318A1 (NANJING LEGEND BIOTECH, published 2024).
Positions count from the first letter of the chain named. Read-outs that look alike come from different tables or passages of the source. Blank lines part the entries; values can stand above or below the binder they belong to.

Legend:
[1] = target: T1, AFP158/HLA-A*02:01 complex (human); test: SPR, antibody captured via mIgG2a-Fc, complex as analyte
T1 construct: biotinylated on the BSP by BirA for ELISA and panning; also called biotinylated AFP158/HLA-A*02:01 complex; Bio-AFP158
Experimental: (§1) The binding affinity between selected antibodies and AFP158/HLA-A*02:01 complex was determined by surface plasmon resonance (SPR) on a BIAcore T200 instrument (GE Healthcare). The experiment was carried out as follows. The purified sdAb/scFv-mIgG2aFc protein were captured through mIgG2a-Fc onto the sensorchip. […] On-rate (kₐ) and off-rate (kd) were calculated based on association and dissociation curve, and were used to estimate the equilibrium dissociation constant (KD).

[2] = target: T2, ARNTL peptide loaded T2 cells (human, UniProt P61769 21-119); test: flow cytometry, peptide-loaded T2 cells
T2 construct: whole, on cells; also called ARNTL/T2

[3] = target: T3, OR6C1 peptide loaded T2 cells (human, UniProt P61769 21-119); test: flow cytometry, peptide-loaded T2 cells
T3 construct: whole, on cells; also called OR6C1/T2

[4] = target: T4, RP1 peptide loaded T2 cells (human, UniProt P61769 21-119); test: flow cytometry, peptide-loaded T2 cells
T4 construct: whole, on cells; also called RP1/T2

[5] = target: T5, PTP4A1 peptide loaded T2 cells (human, UniProt P61769 21-119); test: flow cytometry, peptide-loaded T2 cells
T5 construct: whole, on cells; also called PTP4A1-pulsed T2 cells

[6] = target: T6, OR1I1 peptide loaded T2 cells (human, UniProt P61769 21-119); test: flow cytometry, peptide-loaded T2 cells
T6 construct: whole, on cells; also called OR1I1/T2

[7] = target: T7, ZNF566 peptide loaded T2 cells (human, UniProt P61769 21-119); test: flow cytometry, peptide-loaded T2 cells
T7 construct: whole, on cells; also called ZNF566/T2

[8] = target: T8, ATG9A peptide loaded T2 cells (human, UniProt P61769 21-119); test: flow cytometry, peptide-loaded T2 cells
T8 construct: whole, on cells; also called ATG9A/T2

[9] = target: T9, NR2E1 peptide loaded T2 cells (human, UniProt P61769 21-119); test: flow cytometry, peptide-loaded T2 cells
T9 construct: whole, on cells; also called NR2E1/T2

[10] = target: T10, OR51B6 peptide loaded T2 cells (human, UniProt P61769 21-119); test: flow cytometry, peptide-loaded T2 cells
T10 construct: whole, on cells; also called OR51B6/T2

[11] = target: T11, BRCA2 peptide loaded T2 cells (human); test: flow cytometry, peptide-loaded T2 cells
T11 construct: whole, on cells; also called BRCA2/T2

[12] = target: T12, RCL1 peptide loaded T2 cells (human); test: flow cytometry, peptide-loaded T2 cells
T12 construct: whole, on cells; also called RCL1/T2

[13] = target: T13, CDC14A peptide loaded T2 cells (human, UniProt P61769 21-119); test: flow cytometry, peptide-loaded T2 cells
T13 construct: whole, on cells; also called CDC14A/T2

[14] = target: T1, AFP158/HLA-A*02:01 complex; test: SPR, scFv-mIgG2aFc from supernatant captured, complex as analyte
Experimental: as §1
(§2) Humanized heavy chains and light chains were combined, and used to produce a series of humanized antibodies. These antibodies were synthesized as scFv-mIgG2aFc and transiently produced using HEK293 cells. The antibodies in the supernatant were subjected to SPR affinity assessment.

[15] = target: RCL1 peptide/HLA-A*02:01 complex (recombinant) (human, UniProt P16213 21-119 (Pongo pygmaeus entry)); test: SPR
[16] = target: BRCA2 peptide/HLA-A*02:01 complex (recombinant) (human); test: SPR
[17] = target: OR6C1 peptide/HLA-A*02:01 complex (recombinant) (human); test: SPR
[18] = target: NR2E1 peptide/HLA-A*02:01 complex (recombinant) (human); test: SPR
[19] = target: ARNTL peptide/HLA-A*02:01 complex (recombinant) (human); test: SPR
[20] = target: OR51B6 peptide/HLA-A*02:01 complex (recombinant) (human); test: SPR
[21] = target: ZNF566 peptide/HLA-A*02:01 complex (recombinant) (human); test: SPR
[22] = target: ATG9A peptide/HLA-A*02:01 complex (recombinant) (human); test: SPR
[23] = target: CDC14A peptide/HLA-A*02:01 complex (recombinant) (human); test: SPR
[24] = target: OR1I1 peptide/HLA-A*02:01 complex (recombinant) (human); test: SPR
[25] = target: PTP4A1 peptide/HLA-A*02:01 complex (recombinant) (human); test: SPR
[26] = target: RP1 peptide/HLA-A*02:01 complex (recombinant) (human, UniProt P16213 21-119 (Pongo pygmaeus entry)); test: SPR
[27] = target: T1, AFP158/HLA-A*02:01 complex; test: SPR; vs AS170036 VL1VH1
[28] = target: T1, AFP158/HLA-A*02:01 complex; test: SPR, crude scFv captured;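 note: Peptide–MHC complex flowed at several concentrations over sensorchip-captured scFv, Kd derived from on- and off-rates obtained from the association and dissociation curves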
[29] = target: T1, AFP158/HLA-A*02:01 complex; test: SPR; vs AS170036 VL1VH1; remark: listed apart in the source
[30] = target: T1, AFP158/HLA-A*02:01 complex; test: SPR, scFv-mIgG2aFc from supernatant captured, complex as analyte; remark: listed apart in the source
Experimental: as §1, §2

Kd [1]: 71 nM
koff [1]: 0.005 s⁻¹
kon [1]: 71000 M⁻¹ s⁻¹
binding result [2]: no binding (tested: 30 or 50 nM)
binding result [3]: no binding (tested: 30 or 50 nM)
binding result [4]: no binding (tested: 30 or 50 nM)
binding result [5]: no binding (tested: 30 or 50 nM)
binding result [6]: no binding (tested: 30 or 50 nM)
binding result [7]: no binding (tested: 30 or 50 nM)
binding result [8]: no binding (tested: 30 or 50 nM)
binding result [9]: no binding (tested: 30 or 50 nM)
binding result [10]: no binding (tested: 30 or 50 nM)
binding result [11]: no binding (tested: 30 or 50 nM)
binding result [12]: no binding (tested: 30 or 50 nM)
binding result [13]: no binding (tested: 30 or 50 nM)
B1: AS148691 scFv-mIgG2aFc (Fc fusion, not shown: a dimerising Fc or GST)
chain: DIQMTQSPSSLSASVGDRVTITCRASQSVSSAVAWYQQKPGKAPKLLIYSASSLYSGVPSRFSGSRSGTDFTLTISSLQPEDFATYYCQQYYGAYLITFGQGTKVEIKGGGGSGGGGSGGGGSEVQLVESGGGLVQPGGSLRLSCAASGFNLYYSSIHWVRQAPGKGLEWVASIYSSYGSTSYADSVKGRFTISADTSKNTAYLQMNSLRAEDTAVYYCARVGPGYYGIDYWGQGTLVTVSS
notes: i647-labelled for flow cytometry

Kd [1]: 260 nM
koff [1]: 0.07 s⁻¹
kon [1]: 270000 M⁻¹ s⁻¹
binding result [2]: no binding (tested: 30 or 50 nM)
binding result [3]: no binding (tested: 30 or 50 nM)
binding result [4]: no binding (tested: 30 or 50 nM)
binding result [5]: no binding (tested: 30 or 50 nM)
binding result [6]: no binding (tested: 30 or 50 nM)
binding result [7]: no binding (tested: 30 or 50 nM)
binding result [8]: no binding (tested: 30 or 50 nM)
binding result [9]: no binding (tested: 30 or 50 nM)
binding result [10]: no binding (tested: 30 or 50 nM)
binding result [11]: no binding (tested: 30 or 50 nM)
binding result [12]: no binding (tested: 30 or 50 nM)
binding result [13]: no binding (tested: 30 or 50 nM)
B2: AS167830 sdAb-mIgG2aFc (Fc fusion, not shown: a dimerising Fc or GST)
chain: QVKLVESGGGSVQAGGSLRLSCAASRSSEYMNRRFCMGWFRQASGKEREGVAVVYIGGGRTYYADSVKGRFTISQDNAKNTLYLQMNNLKPEDTAMYYCTADVDPYESSWSRDLGYWGQGTQVTVSS
notes: as for B1

Kd [14]: 200 nM
koff [14]: 0.39 s⁻¹
kon [14]: 2e+06 M⁻¹ s⁻¹
B3: AS190259 VL1VH1 scFv-mIgG2aFc (Fc fusion, not shown: a dimerising Fc or GST)
chain: SSELTQDPAVSVALGQTVRITCQGGGYYVNWYQQKPGQAPVLVIYLNTNRPSGIPDRFSGSSSGNTASLTITGAQAEDEADYYCQSADSSGNSAVFGGGTKLTVLGGGGSGGGGSGGGGSEVQLVESGGGLVQPGGSLRLSCAASGFTFSSYAMSWVRQAPGKGLEWVSAINSGGGSTYYADSVKGRFTISRDNSKNTLYLQMNSLRAEDTAVYYCAKAASGYGGSWWGDATLDAWGQGTLVTVSS
notes: Humanized

Kd [14]: 220 nM
koff [14]: 0.3 s⁻¹
kon [14]: 1.4e+06 M⁻¹ s⁻¹
B4: AS190259 VL2VH1 scFv-mIgG2aFc (Fc fusion, not shown: a dimerising Fc or GST; small tags and cut ends)
scFv: B3 chain with R19T, D81A

binding result [15]: no binding
binding result [16]: no binding
binding result [17]: no binding
binding result [18]: no binding
binding result [19]: no binding
binding result [20]: no binding
binding result [21]: no binding
binding result [22]: no binding
binding result [23]: no binding
binding result [24]: no binding
binding result [25]: no binding
binding result [26]: no binding
Affinity increase [27]: > 2 fold
Kd [28]: 140 nM
Affinity increase [29]: 2 fold
B5: AS170036 VL1VH1-VHG108N (scFv)
scFv: QSALTQPRSVSGSPGQSVTISCAGTSSDVGSENYVSWYQQHPGKAPKLMIYQVNKRASGVPDRFSGSKSGNTASLTISGLQAEDEADYYCASYRSSDHNIVFGGGTKLTVLGGGGSGGGGSGGGGSEVQLVESGGGLVQPGGSLRLSCAASGFTFSSYAMSWVRQAPGKGLEWVSTINSGTGSPYYADSVKGRFTISRDNSKNTLYLQMNSLRAEDTAVYYCAKNFFDGSWFLNPPAMDYWGQGTLVTVSSHHHHHH

binding result [15]: no binding
binding result [16]: no binding
binding result [17]: no binding
binding result [18]: no binding
binding result [19]: no binding
binding result [20]: no binding
binding result [21]: no binding
binding result [22]: no binding
binding result [23]: no binding
binding result [24]: no binding
binding result [25]: no binding
binding result [26]: no binding
Affinity increase [27]: > 2 fold
Kd [28]: 100 nM
Affinity increase [29]: 2.4 fold
B6: AS170036 VL1VH1-VHS57Q (scFv)
scFv: B5 scFv with S183Q, N234G

binding result [15]: no binding
binding result [16]: no binding
binding result [17]: no binding
binding result [18]: no binding
binding result [19]: no binding
binding result [20]: no binding
binding result [21]: no binding
binding result [22]: no binding
binding result [23]: no binding
binding result [24]: no binding
binding result [25]: no binding
binding result [26]: no binding
Affinity increase [27]: > 2 fold
Kd [28]: 88 nM
Affinity increase [29]: 2.8 fold
B7: AS170036 VL1VH1-VHS57R (scFv)
scFv: B5 scFv with S183R, N234G

Kd [1]: 390 nM
koff [1]: 0.14 s⁻¹
kon [1]: 350000 M⁻¹ s⁻¹
Kd [14]: 220 nM
koff [14]: 0.25 s⁻¹
kon [14]: 1.1e+06 M⁻¹ s⁻¹
B8: AS190259 scFv-mIgG2aFc (Fc fusion, not shown: a dimerising Fc or GST)
chain: QSVVTQPSAVSVSLEETATITCQGGGYYVNWYQQKPGQAPVLVIYLNTNRPSGIPERFSASKSGGTATLTINGAQAEDEAAYYCQSADSSGNSAVFGGGTHLTVLGGGGSGGGGSGGGGSQVQLVQSGGGLVQPGGSLRLSCAASGFTFSSYAMSWVRQAPGKGLEWVSAINSGGGSTYYADSVKGRFTISRDNAKNTLYLQLNSLKTEDTAMYYCAKAASGYGGSWWGDATLDAWGQGTLVTVSS
notes: Camel scFv; i647-labelled for flow cytometry

Kd [1]: 39 nM
koff [1]: 0.0042 s⁻¹
kon [1]: 110000 M⁻¹ s⁻¹
binding result [2]: no binding (tested: 30 or 50 nM)
binding result [3]: no binding (tested: 30 or 50 nM)
binding result [4]: no binding (tested: 30 or 50 nM)
binding result [5]: no binding (tested: 30 or 50 nM)
binding result [6]: no binding (tested: 30 or 50 nM)
binding result [7]: no binding (tested: 30 or 50 nM)
binding result [8]: no binding (tested: 30 or 50 nM)
binding result [9]: no binding (tested: 30 or 50 nM)
binding result [10]: no binding (tested: 30 or 50 nM)
binding result [11]: no binding (tested: 30 or 50 nM)
binding result [12]: no binding (tested: 30 or 50 nM)
binding result [13]: no binding (tested: 30 or 50 nM)
Kd [30]: 28 nM
koff [30]: 0.0041 s⁻¹
kon [30]: 150000 M⁻¹ s⁻¹
B9: AS179723 scFv-mIgG2aFc (Fc fusion, not shown: a dimerising Fc or GST)
chain: QAGLTQPPSMSGSPRQSVTISCTGSSNNIGGNYVNWYQHLPGTAPKLLIYDNKNRPSGVPEQISGSKSGSSASLTITGLQAEDEGDYYCASWDDSLSAVVFGGGTHLTVLGGGGSGGGGSGGGGSEVQLVESGGGLVQPGGSLRLSCAASGFTFLNYAMSWVRQAPGKGLEWVSSNSGAGSTYYSDSVKGRFTISRDYAKNVVYLQLNSLKTEDTGMYYCAKGTNVGSWSSLHYWGQGTQVTVSS
notes: as for B8
